ON propagation on this AP combo, against the wt HA4 monobody data for one substance are collected here from patent publication US20200216833A1.

The target in this assay is SH2 domain of Abl1 kinase fused to 434 cI repressor (UniProt P16117). Nature of the assay: cell-based or functional assay.

In turn, “HA4 Y84A monobody (from UniProt P0A800 1-91) (designed binder)” came in with an ON propagation on this AP combo, against the wt HA4 monobody of 105 fold lower.
